This is an account of results in patent publication CN105968201A (UNIV NANCHANG, dated 2016).

Test [1] concerns the target T1, 前列腺特异性膜抗原 (PSMA) on LNCaP cells (UniProt Q04609 1-750, limits assumed).
T1 construct: whole, on cells; Cells were fixed with 4% paraformaldehyde before the assay; also called prostate specific membrane antigen; LNCaP细胞(表达PSMA)
As to the kind of experiment: cell ELISA and immunofluorescence on fixed LNCaP cells (PSMA-positive) against MKN45 cells (PSMA-negative), anti-M13 detection. On the technique in general: In an ELISA, binding on a coated surface is turned into a signal by an enzyme label.

A further test deals with T2, 重组表达的PSMA胞外区蛋白 (UniProt Q04609 44-750, limits assumed).
T2 construct: extracellular domain; Expressed from vector pRAG2a in HEK-293 cells, purified with HisTrap FF Crude and detected with an anti-His antibody; also called 前列腺特异性膜抗原膜外区; PSMA蛋白
T2 sequence (Q04609 44-750 limits assumed): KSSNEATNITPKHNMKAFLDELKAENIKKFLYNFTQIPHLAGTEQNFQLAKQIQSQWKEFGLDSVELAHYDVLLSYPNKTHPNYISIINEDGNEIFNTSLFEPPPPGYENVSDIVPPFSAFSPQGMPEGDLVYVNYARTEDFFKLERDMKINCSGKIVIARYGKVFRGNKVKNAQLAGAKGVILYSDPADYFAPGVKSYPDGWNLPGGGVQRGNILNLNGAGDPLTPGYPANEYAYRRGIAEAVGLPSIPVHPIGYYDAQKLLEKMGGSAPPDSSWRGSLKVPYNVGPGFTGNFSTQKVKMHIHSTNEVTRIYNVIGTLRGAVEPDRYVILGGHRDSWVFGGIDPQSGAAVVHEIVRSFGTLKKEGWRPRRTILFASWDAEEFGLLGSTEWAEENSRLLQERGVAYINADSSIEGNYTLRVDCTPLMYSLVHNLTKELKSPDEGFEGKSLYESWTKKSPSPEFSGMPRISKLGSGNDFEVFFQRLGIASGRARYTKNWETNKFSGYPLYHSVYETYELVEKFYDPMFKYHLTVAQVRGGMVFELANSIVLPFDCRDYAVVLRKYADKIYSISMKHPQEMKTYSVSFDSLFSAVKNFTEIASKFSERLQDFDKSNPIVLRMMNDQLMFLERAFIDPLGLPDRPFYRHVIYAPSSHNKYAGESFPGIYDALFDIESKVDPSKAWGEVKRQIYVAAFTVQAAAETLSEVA
As to the kind of experiment: indirect phage ELISA, PSMA extracellular region coated at 5 μg/mL, HRP-anti-M13 detection.

T1 sequence (Q04609 whole entry): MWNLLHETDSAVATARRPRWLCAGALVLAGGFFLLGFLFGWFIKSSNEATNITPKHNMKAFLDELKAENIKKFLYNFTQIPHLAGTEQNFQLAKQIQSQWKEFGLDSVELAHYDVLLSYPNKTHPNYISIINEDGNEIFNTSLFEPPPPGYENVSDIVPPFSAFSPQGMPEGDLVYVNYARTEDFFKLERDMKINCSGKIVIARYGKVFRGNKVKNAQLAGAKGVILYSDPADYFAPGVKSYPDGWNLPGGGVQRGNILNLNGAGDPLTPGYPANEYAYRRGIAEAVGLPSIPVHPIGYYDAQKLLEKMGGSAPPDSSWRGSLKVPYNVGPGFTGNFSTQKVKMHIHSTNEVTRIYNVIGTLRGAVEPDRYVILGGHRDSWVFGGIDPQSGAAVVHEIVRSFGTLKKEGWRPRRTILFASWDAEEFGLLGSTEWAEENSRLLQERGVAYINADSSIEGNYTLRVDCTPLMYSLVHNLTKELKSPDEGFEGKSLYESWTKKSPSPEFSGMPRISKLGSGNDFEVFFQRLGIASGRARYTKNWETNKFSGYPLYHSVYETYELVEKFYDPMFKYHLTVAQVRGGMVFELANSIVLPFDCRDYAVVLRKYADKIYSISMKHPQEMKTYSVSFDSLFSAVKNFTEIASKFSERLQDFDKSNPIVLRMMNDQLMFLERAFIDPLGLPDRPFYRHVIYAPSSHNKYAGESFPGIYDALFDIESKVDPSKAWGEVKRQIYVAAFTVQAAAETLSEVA

B1: 抗前列腺特异性膜抗原单域重链抗体噬菌体阳性克隆 (VHH)
VHH: QVQLVESGGGLVQAGGSLRLSCAASGRFSRYAMGWFRQAPGKEREFIASISRSGGTTYYGDSVKGRFTISRDNAKNTVYLQMNTLKAEDTAVYYCAARTKGFGLRGQYHYWGQGTQVTVSS
notes: also called 针对前列腺特异性膜抗原的单域重链抗体阳性克隆; 展示本发明所述纳米抗体的噬菌体克隆
Regarding B1, the binding result (in test [1]; with 重组表达的PSMA胞外区蛋白) was “binds” throughout.
